Data from the nanobody polyreactivity screen of Harvey et al. (2022).

Experiment: yeast display, Sf9 membrane polyspecificity reagent, FACS + sequencing; frameworks hold sequencing errors
Method in brief: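 Galactose induction of a Saccharomyces cerevisiae BJ5465 synthetic nanobody display library ran 36–48 hours. The cells were then stained for 1 hour at 4 °C with 10% biotinylated, detergent-solubilized Sf9 membrane reagent, pulled down on streptavidin microbeads and FACS-sorted into low and high (top ~1%) gates on expression and reagent-binding fluorescence. Labels for polyreactivity follow the gate of origin.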

Sequence | polyreactivity (PSR sort gate)
QVQLVESGGGLVQAGGSLRLSCAASGRIFFGYAMGWYRQAPGKEREFVAAINWIGGRTYYADSVKGRFTISRDNAKNTVYLQMNSLKPEDTAVYYCAKEVSPYWTFDYWGQGSQVTVSS | low polyreactivity
QVQLVESGGGLVQAGGSLRLSCAASGRIFFGYAMGWYRQAPGKEREFVAAITRRGGSTYYADSVKGRFTISRDNAKNTVYLQMNSLKPEDTADYYCAKDTIGGASPHYYWGQGTQVTVSS | high polyreactivity
QVQLVESGGGLVQAGGSLRLSCAASGRIFFIYAMGWYRQAPGKERELVAAISYDSGSTYYADSVKGRFTISRDNAKNTVYLQMNSLKPEDTAVYYCAAEWGLVIYSTYGYDYWGQGTQVTVSS | low polyreactivity
QVQLVESGGGLVQAGGSLRLSCAASGRIFFIYPMGWYRQAPGKERELVAGINRTGGSTYYADSVKGRFTISRDNAKNTVYLQMNSLKPEDTAVYYCAAVSYYASDYRYDYWGQGTQVTVSS | low polyreactivity
QVQLVESGGGLVQAGGSLRLSCAASGRIFFLNTMGWYRQAPGKERELVAAITRGGSTYYADSVKGRFTISRDNAKNTVYLHMNSLKPEDTAVYYCAADVYGGIGYDYWGQGTQVTVSS | low polyreactivity
QVQLVESGGGLVQAGGSLRLSCAASGRIFFLNTMGWYRQAPGTERELVAAITRGGSTYYADSVKGRFTISRDNAKNTVYLQMNSLKPEDTAVYYCAADVYGGIGYDYWGQGTQVTVSS | low polyreactivity
QVQLVESGGGLVQAGGSLRLSCAASGRIFFRNALGWYRQAPGKERELVAVINTGGSTNYADSVKGRFTISRDNAKNTVYLQMNSLTPEDTAVYYCAVDRASRRTYNQYGYWGQGTQVTVSS | high polyreactivity
QVQLVESGGGLVQAGGSLRLSCAASGRIFFSYAMGWYRQAPGKERELVAAISRSGGRTYYADSVKGRFTISRDNAKNTVYLQMNSLKPEDTAVYYCAASSISSLYYDYWGQGTQVTVSS | high polyreactivity
QVQLVESGGGLVQAGGSLRLSCAASGRIFFVNAMGWSRQAPGKERELVAAISRGGSTNYADSVKGRFTISRDNAKNTVYLQMNSLKPEDTAVYYCNADGSSYWYPVPLDGGDYWGQGTQVTVSS | low polyreactivity
QVQLVESGGGLVQAGGSLRLSCAASGRIFFYNVMGWYRQAHGKERELVAAITTIGGSTYYADSVKGRFTISRDNAMNTVYLQMNSLKPEDTAVYYCAAGWVTNSDGMDYWGQGTQVTVSS | low polyreactivity
QVQLVESGGGLVQAGGSLRLSCAASGRIFFYNVMGWYRQAPGKERELVAAITTIGGSTYYADSVKGRFTISRDNAKNTVYLQMNSLKPEDTAVYYCAAGWVTNSDGMDYWGQGTQVTVSS | low polyreactivity
QVQLVESGGGLVQAGGSLRLSCAASGRIFFYYAMGWYRQAPGKERELVAAISKSGGRTYYADSVKGRFTISRDNAKNTVYLQMNSLKPEDTAVYYCAAYSAHDSDYWGQGTQVTVSS | high polyreactivity
QVQLVESGGGLVQAGGSLRLSCAASGRIFFYYAMGWYRQAPGKERELVATITASGDSTYYADSVKGRFTISRDNAMDTVYLQMNSLKPEDTAVYYCAADDGDYYEVDYWGQGTQVTVSS | low polyreactivity
QVQLVESGGGLVQAGGSLRLSCAASGRIFFYYVMGWYRQAPGKERELVAAITRSGGSTYYADSVKGRFTISRDNAKNTVYLQMNSLKPEDTAVYYCAVGDGFEYDWGQGTQVTVSS | low polyreactivity
QVQLVESGGGLVQAGGSLRLSCAASGRIFGANAMGWSRQAPGKERELVATITYVGTSTYYADSVKGRFTISRDNAKNTVYLQMNSLKPEDTAVYYCAADGYSVFAAILGEYFDYDYWGQGSQVTVSS | low polyreactivity
QVQLVESGGGLVQAGGSLRLSCAASGRIFGAYAMGWYRPAPGKERELVAAITGGDSTYYADSVKGRFTISRDNAKNTVYLQMNSLKPEDTAVYYCAADLTPEGVLQLGKYINYDSWGQGTQVTVSS | low polyreactivity

Sequence | polyreactivity (PSR sort gate)
QVQLVESGGGLVQAGGSLRLSCAASGRIFGAYAMGWYRQAPGKERELVAAIDIRGGNTYYADSVKGRFTISRDNAKNTVYLQMNSLKPEDTAVYYCAADTWYDAYNYWGQGTQVNVSS | low polyreactivity
QVQLVESGGGLVQAGGSLRLSCAASGRIFGDNAMGWYRQAPGKERELVADITSSGGSTHYADSVKGRFTISRDNAKNNVYLQLNSLKPEDTEVYYCNADDYVYFDDGDYWGQGTQVTVSS | low polyreactivity
QVQLVESGGGLVQAGGSLRLSCAASGRIFGEYAMGWYSQAPGKERELVASISSGGNTNYADSVKGRFTISRDNAKNTFYLQMNSLKPEDTAVYYCAADDYATPQKMDYWGQGTQVTVSS | high polyreactivity
QVQLVESGGGLVQAGGSLRLSCAASGRIFGFYALGWYRQAAGKEWELVAAISQSRGSTYYADSVKGRFTISRDTANNTVYLQMNSLKPEDTAVYYCAKGYKYGKNIYYYWGQGTQVTVSS | high polyreactivity
QVQLVESGGGLVQAGGSLRLSCAASGRIFGFYAMGWYRQAPGKERELVARISSRGGSTYYADSVKGRFTISRDNAKNTVYLQMNSLKPEDTAVYYCAAYVWYHQYHYVPMDYWGQGTQVTVSS | high polyreactivity
QVQLVESGGGLVQAGGSLRLSCAASGRIFGFYAMGWYRQAPGKERELVARITLSGGRTYYADSVKGRFTISRDNAKNTVYLQMNSLKPEDTEVYYCAADSIGRLWGYGYWGQGTQVTVSS | high polyreactivity
QVQLVESGGGLVQAGGSLRLSCAASGRIFGGNAMGWYRQAPGKERELVAAITSGGGSTSYADSVKGRFTISRDNAKNTVYLQMNSLKPEDTAVYYCAAPATYGPFVIDTVYPRDGYWGQGTQVTVSS | low polyreactivity
QVQLVESGGGLVQAGGSLRLSCAASGRIFGGYAMGGYRQAPGKERELVAAISSRGTRTYYADSVKGRITISRDNAKNTVYLQMNSLKPEDTAVYYCATAYRGFHYSPLRELDYWGQGTQVTVSS | high polyreactivity
QVQLVESGGGLVQAGGSLRLSCAASGRIFGGYAMGWYRPAPGKERELVAAISGGGSTNYADSVKGRFTISRDNAKNTVYLQMNSLKPEDTAVYYCAAQYWSRRFYWYGYWGQGTQVTVSS | high polyreactivity
QVQLVESGGGLVQAGGSLRLSCAASGRIFGGYAMGWYRQAPGKERELVAAISARGGSTYYADSVKGRFTISRDNAKNTVYLQMNSLKPEDTAVYYCAAAEASSRGYYDYDYWGQGTQVTVSS | low polyreactivity
QVQLVESGGGLVQAGGSLRLSCAASGRIFGGYAMGWYRQAPGKERELVAAISNGGRTNYADSVKGRFTISRDNAKNTVYLQMISLKPEDTAVYYCAARNYKPYGYYRIYDSWGQGTQVTVSS | high polyreactivity
QVQLVESGGGLVQAGGSLRLSCAASGRIFGGYAMGWYRQAPGKERELVAAITFRSGTTYYADSVKGRFTISRDNAKNTVYLQMNSLKPEDTAVYYCAARWGPYAFTYVRTYDYWGQGTQVTVSS | low polyreactivity
QVQLVESGGGLVQAGGSLRLSCAASGRIFGGYAMGWYRQAPGKERELVAAITQSGGSTYYADSVKGRFTISRDNAKNTVYLQMNSLKPEDTAVYYCATYAWYIFGYWGQGTQVTVSS | low polyreactivity
QVQLVESGGGLVQAGGSLRLSCAASGRIFGGYAMGWYRQAPGKERELVAVITDGGSTNYADSVKRRFTISRDNAKNTVYLQMNSLKPEDTAVYYCAADSDGDEPPYDYWGQGTQVTVSS | low polyreactivity
QVQLVESGGGLVQAGGSLRLSCAASGRIFGGYVMGWYRQAPGKERELVAAISKRGDSTYYADSVKGRFTISRDNAKHTVYLQMNSLKPEDTAVYYCAAVRRGDRGTDMDYWGQGTQVTVSS | high polyreactivity
QVQLVESGGGLVQAGGSLRLSCAASGRIFGHNAMGWYRQAPGKERELVARISSTGSTKYADSVKGRFTISRDNAKNTVYFQMNSLKPEDTAVYYCAAVDRLRSIRYDYWGQGTQVTVSS | high polyreactivity
